Experimental data published in the nanobody polyreactivity screen of Harvey et al. (2022).

Test: yeast display, Sf9 membrane polyspecificity reagent, FACS + sequencing; frameworks hold sequencing errors
In short: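 Sorting gates, low and high (top ~1%), were placed on anti-HA fluorescence to track expression and on streptavidin fluorescence to track reagent binding. A clone's polyreactivity label is taken from the gate it came out of. The reagent was 10% biotinylated, detergent-solubilized Sf9 membrane, applied for 1 hour at 4 °C to galactose-induced yeast display cells.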

| Sequence | polyreactivity (PSR sort gate) |
| --- | --- |
| QVQLVESGVGLVQAGGSLRLSCAASGSTFDANAMGWYIQAPGKERELVAAITSNGGSTYYADSVKGRFTISRDNAKNTVYLQMNSLKPEDTAVYYCASEQHTVQDYDYWGQGTQVTVSS | low polyreactivity |
| QVQLVESGGGLVQAGGSLRLSCAASGSTVSPNAMGWDRPAPGKERELVAAITYRGANTYYADSVKGRFTISRDNAKNTVYLQMNSLKPEDTAVYYCAATYGSWISLRFYWGQGTQVTVSS | low polyreactivity |
| EVQLVESGGGLVQAGGSLRLSCAASGRTFIWNAMGWYRQAPGKERELVAAITRNGDSTYYADSVKGRFTISRDNAKNTVYLQMNSLKPEDTAVYYCAAYSRVFVYRTVGNYGWMNYWGQGTQVTVSS | high polyreactivity |
| QVQLVESGGGLVQAGGSLRLSCAASGSTFTPNAMGSYRQAPGKERELDASISTTGGNTYYADSVKGRFTISRDNAKNTVYLQMNSLKPEDTAVYYCNAVRSVYLYGYIYGVDYWGQGTQVTVSS | low polyreactivity |
| QVQLVESGGGLVQAGGSLRLSCAASGFIFYRYARGWYRQAPGKEREFVAAITRSAGGTYYADSVKGRFTISRDNAKNTVYLQMNSLKPEDTAVYYCAAVYRSGSRYYLGWYNYWGQGTQVTVSS | high polyreactivity |
| HVQLVESGGGLVQAGGSLRLSCAASGSTFYNYAMGWYRQAPGNERELVAGISSGVTTNYADSVKGRYTISRDNAKNTVYLQMNSLKPEDTAVYYCAAVHSWYARYLGGEDYDYWGQGTQVTVSS | low polyreactivity |
| QVQLVESGGGLVQAGGSLRLSCAASGNTFGRYAMGWSRQAPGKERELVASIRGSSVRTFYADSVKGRFTISRDNAKNTVYLQMNSLKPEDTAVYYCAKRGYAYPSSYDSWGQGTQVTVSS | high polyreactivity |
| QVQLVESGGGLVQAGGSLRLSCAASGRTFRYYAMGWYRQAPGKERELVADISWSGGRTTYADSVKGRFTISRDNAKNTVYLQMNSLKPEDTAVYYCAKVLYYPSNDYWGQGSQVTVSS | high polyreactivity |
| QVQLQESGGGLVQAGGSLRLSCAASGNIYDADIMGWYRQAPAKERELVTSITDGGSTNYADSVKGRFTISRDNAKNTVYLQMNSLKPEDTAVYYCAAIAYPDIPTSFDYNSDYSYWGQGTQVTVSS | low polyreactivity |
| QVQLVESGGGLVQAGGSLRLSCAASGSIFGGYDMGWYRQAPGKESELVASISGSSSTYYADSVKGRFTISRDNAKNTVYFQMNSLKPEDTAVYYCAVDYHQAWPSADYWFEYDYWGQGTQVTVSS | low polyreactivity |
| QVQLVESGGGLVQAGGSLRLSCAASGLIFYYYAMGWYRQAPGKERELVAAITAIGDRTYYADSVKGRFTISRDNAKNTVYLQMNSLKPEDTAVYYCAAGWLLYNRYGIITYDYWGQGTQVTVSS | high polyreactivity |
| QVQLVESGGGLVQAGGSLRLSCAASGFTFLKYAMGGYRQAPGKERDLVARITSGGRTYYADSVKGRFTISRDNAKNTVYLQMNSLKPEDTAVYYCNAVKSYASLYAVFYDWGQGTQVTVSS | high polyreactivity |
| QVQLVESGGGLVQAGGSLRLSCAASGSIFHSYAMGWYRQAPGKERDFVASITQRVGRTNYADSVKGRFTISRDNAKNTVYLQMNSLKPEDTAVYYFAASYWRLYYRRDYWGQGTQVTVSS | high polyreactivity |
| QVQLVESGGGLVQAGGSLRLSCAASGSTFVRNGMGWYRQAPGKERELVASISGRGGSTYYADSVKGRFTISRDNAKNTVYLQMNSLKPEDTAVYYCAVRYGFYSRYNYWGQGTQVTVSS | high polyreactivity |
| QVQLQESGGGLVQAGGILRLSCAASGTISDRAGMGWYREAPAKNAIGATIDRGTNTNYADSVKGRFTISRDNAKNTVYLQMNSLKREDTAVYNCAADGRYYIYLDYWGQGTQVTVSS | low polyreactivity |
| QVQLVESGGGLVQAGGSLRISCAASGSIFDRNAMGWYRQAPGKERELVAGISSGGGTNYADSVKGRFTISRDNAKNTVYFQMNSLKPEDTAVYYCAVYRYLSNRVKYDYWGQGTQVTVSS | low polyreactivity |

| Sequence | polyreactivity (PSR sort gate) |
| --- | --- |
| QVQLVESGGGLVQAGGSLRLSCAASGSTFSKYAMGWYRQAPGKERELEAAITRTGGRTYYADSVKGRFTISRDNANNTVYLQMNSLKPEDTAVYYCAASATFWGQGTQVTVSS | high polyreactivity |
| QVQLVESGGGLVQAGGSLRLSCASSGRTLRRYAMGWYRQAPGKERELVAAISRSGSSTYADSVKGRFTISRDNAKNTVYLQMNSLKPEDTAVYYCNAYQPRYVYWGQGTQVTVSS | high polyreactivity |
| QVQLEESGGGLVQAGGSLRLSCAASGSILRRYAMGWYRQAPGKEREFVAAMSYSGSRTYYADSVKGRFTISRDNAKYTVYLQMYSLKPEDTAVYYCAADSYGSRYEYWGLGTQVTVSS | high polyreactivity |
| QVQLVESGGGLVQAGGSLRLSCAASGSIFKYYAMGGYRQAPGTERELVAAITQRGGSTYYADSVKGRFTISRDNAKNTGYLQMNRLNPEDTAVYYCNRYSLTAWYYRHGYYYWGQGTQVTVSS | high polyreactivity |
| QVQLVESGGGLVQAGGSLRLSCAASGITFIYNAMGWYRQAPGKERELVATINDGGSTNYADSVKGRFTISRDNAKNTVYLQMNSLKPEDTAVYYCNADGGPYGAVGKSDYWGQGTQVTVSS | low polyreactivity |
| QVQLVESGGGIVQAGGSLRLSCAASGFTFGSYAMGWYRQAPGKEREFVAAIRRSGSSTYYADSVKGRFTISRDNAKNTVYLQMNSLKPEDTAVYYCAADVYRRLRRYRYYYWGQGTQVTVSS | low polyreactivity |
| QVQLVESGGGLVQAGGSLRLSCAASGSIFTRNAMGWYRQAPGKERELVATIRKNGASTTYADSVKGRFTISRDNAKNTVYLQMNSLKQEDTAVYYCARDHHTKYNYWGQGTQVTVSS | low polyreactivity |
| QVQLVESGGGLVQAGGSLRLSCAASGSTFYDNAMGWYRQAPGKERELVAAIDGGDTYYADSVKGRFTISRDNAKNTVYLQMISLKPEDTAVYYCAAESLPEISVGLGYWGQGTQVTVSS | low polyreactivity |
| QVQLVESGGGLVQAGGSLRLSCAASGSIFRRNTMGWYRQAPGKERELVAAITFTGGRTYYADSVKGRFTISRDYAKNTVYLQMNSLKPEDTAVYYCNRVTAYYPTKFDYWGQGTQVNVSS | high polyreactivity |
| QVQLVESGGGLVQAGGSLRLSCAASGSTFNLYAMGWYRQAPGKERELVASISRSGVSTYYADSVKGRFTISRDNAKNTVYLQMNRLKPEDTAVYYCAVDKVLYRLYPGMDYWGQGTQVTVSS | low polyreactivity |
| QVQLVESGGGLVQAGGSLRLSCASSGRTFQYYAMGWYRQAPGKERELVAAISSRGGSTYYADSVKGRFTISRDNAKNTVYLQMNSLKPEDTAVYYCAAYVLPRQRVRSDYWGQGTQVTVSS | high polyreactivity |
| QVHLVESGGGLVQAGGSIRLSCAASGSTFLVYAMGWYRPAPGKGRELVAAISRSGSSTYYADSVKGRFTISRDNAMNTVYLQMIRLKPEDTAVYYCNAYSQYWLGNNYWGQGTQVTVSS | high polyreactivity |
| QVQLVESGGGLVQAGGSLRLSCAASGFIFKGYAKGWYRQAPGKERELVAAINTSGGSTYYAVSVKGRFTISRDNAKNTVYVQMNSLKPEDTAVYYCNVRNRSRPYLPFWPDDNWGQGTQVTVSS | high polyreactivity |
| QVQLVESGGGLVQAGGSLRLSCAASGNIFFGNAMGWYRQAPGKERELVAVISKRGGSTYYADSVKGRFTISRDNAKNTVYLQMNSLKPEDTAVYYCAKVPTSRGNQLQQDGTKYDYWGQGTQVTVSS | high polyreactivity |
| QVQLVESGGGLVQAGGSLRLSCAASGRTFQVNAMGWYREAPGKERELVAAISIRSGRTYYADSVKGRFTISRYNAKNTVYLQMNSLKPEDTAVYYCAAYRISVYGVGYWGQGTQVTVSS | high polyreactivity |
